Reference: the DeepSol protein solubility set

Assay: soluble on expression in E. coli; label from the status in PepcDB or PDB records
With “MGSDKIHHHHHHMNSKYNFQYFQGSSLSDLFAQDITDGSYGFILNYPATASWAAYPNRKKYFIQDGSSEASKTSFDKICQKEPWKNLAVLGDRIPGIVIIPPPKPLLEYWQEHFGFKHSNIEMMDCSTYLDDLSHSDRFDKLITLFPFDCLKPEKHAVTSDTHYRLLSKVTLEEIGVQCPKYKSYNLHQVNIVDIQLPQFPYLIKTSHGLSGEGTYIIKNPSDLNYCLEEINKYLDIKLLDTIIVSEFIKNEVQNYCVQFYVNKAGEITLIGTTGQLVTPEGNYLGGVIDYGKTDMSKFFEMIANVGDYAHKQGYFGVIGFDVLENQDGQFYAIDANFRVNGSTPLCLQRHTLLRLGKEVAKYSSSYRMEGTLESILITLKPELDRKDLIILSALEKAKYGKIYTELYAIVTGETIAQMQYIEQQLQTKGLQLLS” the “soluble on expression in E. coli” value was “not soluble”. With “GISPNVLNNMKSYMKHSNIRNIIINIMAHELSVINNHIKYINELFYKLDTNHNGSLSHREIYTVLASVGIKKWDINRILQALDINDRGNITYTEFMAGCYRWKNIESTFLKAAFNKIDKDEDGYISKSDIVSLVHDKVLDNNDIDNFFLSVHSIKKGIPREHIINKISFQEFKDYMLSTF” the “soluble on expression in E. coli” value was “soluble”. For “MCRYARSYLLHAFDYTLFVKARLNMAFMISMPAIELAGLTIQVCQFDPQQFDEDQQHYLAPPTYHSLHKAVVKRQAEFVAGRKLAQQALKQIGQGYDRPIAIGTHREPLWPAGITGSIAHCDGWAVCTVLKAEHLSLGIDIEHRLAHQTASEVQAIIGTAQEWALLAQQFDLASAVTLLFSAKESLFKALFPQVHLYLDFCDAQLSSLEPNKMSFTLTRVPNAAQQSCEVYFRWFEQQRVLTVSVLPMLGKIEYHVPTLPT”, the “soluble on expression in E. coli” value was “not soluble”. In the case of “MSLEVIKHDGPGRLGVIRLEPPVQTPALAGVDFTISPFNSYFNPKEYHDYDFNLAPSIPLSYYTPDEVIEKALKRIETVDYSKFNTFYFPALKRDKYYPRFVELIEENDFDAIYIGNSKVMIKDYRGFVATLRILREKFPNAVLITDLEPFFYPLAVYLGVDAFDVRSLKIYSYEGLGFTPFSPVIWDRPNDPIEFAREMIKIIKIAIQEGKLRYLVENFLPTVMNVGILRIADKEHGDYLEKYTPVHDKTVVFISEHSISRPEVFRWRKRIEERFEPPKGIDLLLIFPCSAKKPYSRSRSHMMYRKVMKEALGEKVHRVHELVVTSPYGVVPREWEWLAKYDIVVTGHWSESEVRFAGELLAQTIEKYPDIPIVAHVEGGYREAVKYAMELVNRDVIFTAVGSSTISKESLDKLKKTLKEFDLRDAEKDYRRYRFYENVRKVFDYYFGLGAGEAVLPENAQIVGSKMLRLIVNNSQTGTFQEGVISVTPFGMQRIYDKLNSYWVEVDFDIRGDVFAAGVERADEGIRPNDIVGIVRDGRVVAVGRAVLSGEEMVRAKKGIAVRVRKRVKNKEGHHHHHH”, the “soluble on expression in E. coli” value is reported as “soluble”. With “GPGSMRRLFPTAKLLGSTTGIRLASMKSSDKERLERLVEEVNGIKSKLKVLEESKAANGLVDLYASRKMKRLDIKRILGIFNDRAYHAPIFCHKALPIILAHFITGLDRLPSGLNAMPSILAVRATLLRSFQKLINCKIPATDDQVQHFRRVLEDIDEEHAERNLLQTMAFGILELKEYVSSHRRALVDLKKTSERWASIPMTEENVLTYAEIQDIQAPLDSVNRCMITYNFISRMFLNHDPDMTMSSNPRRIGMVDLEMNLEHVVRNAVDEAKQICTDHYGDCPDTEFELTSDTKAFRFPYMSTTIRYIILELMKNAFRATVDSHMKRNDVGMVTCADMPPVRVLINLQEGTEHACICISDEGMGMTDEALTMAMAYSYTSVSKPALQLGESGERCASTAPSPLAGYGYGLPMSRVYAQSLGGDLLLQTMEGYGTRAYYYIKIADAQPLCDEETK” the “soluble on expression in E. coli” value was “soluble”. For “MSLGLAIIHSRASIGVQAPPVTVEVHISNGMPGFTLVGLPETTVKESRDRVRSAIINSRFEFPAKRITVNLAPADLPKEGGRFDLPIALGILAASDQIARNKLESYEFIGELALSGEIRGVKGVLPAALAANQVERCLVVPHSNGDQAALVGVERHKSAQSLLEVCADLCGQQTLSLFQSSPSVQQVSQTRDLQDIIGQQQGKRALEIAAAGNHNLLFLGPPGTGKTMLASRLCDLLPEMSDEEAMETASIASLTQQEINQHNWKLRPFRAPHHSSSMAALVGGGTIPRPGEISLAHNGLLFLDEMPEFERKVLDSLREPLESGEIVISRAQGKTRFPARFQLVGALNPSPTGYYEGSQARANPQSILRYLSRLSGPLLDRFDMSIEIPALPKGTLANGGDRGESTAAVRQRVWVARERMLARSGKVNALLQSREIEQYCPLLKADAEFLESALHRLGLSIRAYHRIIKVARTIADLQGEAQIARPHLAEALGYRAMDRLLKQLSAQNEGHHHHHH”, the “soluble on expression in E. coli” value was “soluble”. In the case of “MHTSLMSYNQNMIPSGDDRPVFPTIDLFANTSLEELQQSLCAAVANYRDFLTRKILPFQQSWVVRVLSESGLDEETLRAIKSCVFTPCCSIPGAVQPDRICQHDSPIYIYTSLNLLSQYVEGKTLLRCYRKFVLASSLPPYRTDIPAEELKNVLNSILPGAYSMPHAVSCFVAILPSKKFTISMSKITTRGGAEEHFVVFSREENDIIPYDIVAVGKTLFSQSDEEFGLPNLSFDELQNLISTLEHHHHHH”, the “soluble on expression in E. coli” value is reported as “not soluble”. For “MIKQVGNTQINPLHRLTCHCGKVELELTLPNGIEKPRRCDCSMCRRRGAIVASVPLSGIRIVQGDDVLKLYQFNTHTAKHFFCSECGIYTHHQRRSDPSEYGYNVGCLEGVNPYELGDIEVMDGVNHPSDRLEHHHHHH”, the “soluble on expression in E. coli” value was “not soluble”. With “MRGSHHHHHHGSTTFNIQDGPDFQDRVVNSETPVVVDFHAQWCGPCKILGPRLEKMVAKQHGKVVMAKVDIDDHTDLAIEYEVSAVPTVLAMKNGDVVDKFVGIKDEDQLEAFLKKLIG” the “soluble on expression in E. coli” value was “soluble”. With “PQASAKEYVTTTGLSPDGNQYSIGWEVPSTQEPARRSKRSTKDYAFETNQLENGMQTLIHIENSEAPTEYRFPLSLPQEAEVIPFSEGSED” the “soluble on expression in E. coli” value was “not soluble”. For “MHHHHHHSSGRENLYFQGSEREASRLDKFKQLLAGPNTDLEELRRLSWSGIPKPVRPMTWKLLSGYLPANVDRRPATLQRKQKEYFAFIEHYYDSRNDEVHQDTYRQIHIDIPRMSPEALILQPKVTEIFERILFIWAIRHPASGYVQGINDLVTPFFVVFICEYIEAEEVDTVDVSGVPAEVLCNIEADTYWCMSKLLDGIQDNYTFAQPGIQMKVKMLEELVSRIDEQVHRHLDQHEVRYLQFAFRWMNNLLMREVPLRCTIRLWDTYQSEPDGFSHFHLYVCAAFLVRWRKEILEEKDFQELLLFLQNLPTAHWDDEDISLLLAEAYRLKFAFADAPNHYKK”, the “soluble on expression in E. coli” value was “soluble”. For “MFTKSCAKATDQNRQELFMDSLLGDFQKMKEKALNQQQERRSKKRELHCKSSEKTKKPNQYAALTHSQVQEVKAKVRTVNDKFHLNAEEKKLWELILLGNQLAQNISSCDLPTDNEDDASLVKLTQIFADETLERTDLTWLNKILKIALYSRGSGFGNCQEKAFFVFALLLHQAQKPESLIHSLRLATFNNHFILIVNEQFLMDPWLNLAFPLSKGNQQLEIGYVFERFGRLVNYFSINQEGQCFTHTVREGGTIERDPSSEKDMANCIHSLLDHRDYFDLSIVSEREIHTNTKRRKYENQEQEVPQPRQETSNQPTETVYTDSSHNTWDNEGAADDFLEHFEQTHPVYNPGFFSFGQDDVGLKPDLPKNLFKF”, the “soluble on expression in E. coli” value was “not soluble”. In the case of “MPAYHSKFDTELKVLPLGNTNMGKLPIRTNFKGPAPQTNQDDIIDEALTYFKPNIFFREFEIKGPADRTMIYLIFYITECLRKLQKSPNKIAGQKDLHALALSHLLPIPGENGFPLNSMYKAPQSKPDEDEMRAYLQQIRQEIGARLCDLAFPDPQDRPSKWWLCFARRRFMDKGLVGQGVNL”, the “soluble on expression in E. coli” value is reported as “soluble”. In the case of “MLRRQMSFNGKSDMGILYLVPTPIGNLEDMTFRAIDTLKSVDAIAAEDTRQTKKLCHVYEIETPLVSYHEHNKESSGHKIIEWLKSGKNIALVSDAGLPTISDPGAEIVKDFTDIGGYVVPLPGANAALTALIASGIVPQPFFFYGFLNRQKKEKKKELEALKKRQETIIFYEAPHRLKETLSAMAEILGDREIAVTRELTKKYEEFIRGTISEVIGWANEDQIRGEFCLVVEGSNNEEVDEEEQWWETLTAKEHVEHYISKGATSKEAIKKAAVDRNVPKREVYDAYHIKQLEHHHHHH”, the “soluble on expression in E. coli” value is reported as “not soluble”. For “MGSDKIHHHHHHLPLLLPVGSQILRNKMRSKPRILIALSSVGLGGAERQGLMFAEYLKCKHSFDVLVSTFGGEGKVSLLCKETGIQHVNIAYPLLGHRWEVWWKLISTALTLRKIKPDCIVSYCMPANAACAAVWRLTGARACIWGQRDAGLQKELLTPIPLAPRLATCFVSNSPHGAAFLENQLAIPRHKISTIPNAVKLNVAQLSRTEWRSRLKISHDAMIVTMVSNLSFRKDHETLLKAWRIGLDNQLFPQNTKLVLCGRDDSNAPVIRKLAGKLHLDNHIRFAGATDDVAGILNASDIAAFSFISEGLPNVVIESMAAGLPVVATDIPGVRAAIGSCDDNILVPPKDPAAMAHGIAKILQDPALRSRAAAANITQATSTFAPDVVFSAFAKLILSNI”, the “soluble on expression in E. coli” value was “not soluble”. With “MMVPPRPGFAPLSLESINDRMEMHLFLTSACILYHIYIRDNLLIYQEIWTKYWRGRLAESALKNEISALYLRLPFPRPPTLQSIAEQEVICKDAAPIYVYCSREAMLSHVQSKDLCQFGRANLLACTLAPYRTGVTIEMVRCLFKRLRDGNRVEAGTGEEDLSHFVAFLPTTAFRRGPRFYLGGENVQFFLREGGLELPCHIIAFGRALFSEILADGSSWDWKSVGESSRLNHVRASVELSRNVPTAETTDNWAEAALGTDAVYPVRPPNLTPTQDHPCKPLLSGNRVPNERHRPWKRFFKKLRSVSKHFYFNRLEHHHHHH” the “soluble on expression in E. coli” value was “soluble”. With “MFFVLSPAKNLNEKDPAPVSEFTQPDLLAESDILMQQLRELAPQQIAELMHVSDKIALLNAQRNAEWNTPFTPENAKQAVFMFNGDVYEGMDANTLDIGQIRYLQNHVRLLSGLYGLLRPLDLIQPYRLEMGTAFANLRGKNLYEFWGDIITNLLNDTLAQAGSNTLVNLASQEYFKSVNTKKLRARLITPIFKDEKNGKYKIISFYAKRARGLMVRYAAEHHITDPEMLKNFNYEGYAFNDAASNESEWVFMRSEQIK” the “soluble on expression in E. coli” value was “not soluble”. For “MIVSFKCVHTRYLFLQGKTRLWPSIKSVAERKLAMLDAATSILDLRSPPGNRLEALDGSRSGQYSVRINAPFRICFVWSINGPEDVEIVDYH”, the “soluble on expression in E. coli” value was “not soluble”. With “FADRMVIKAQSPAGFAEEYIIESIWNNRFPPGTILPAERELSELIGVTRTTLREVLQRLARDGWLTIQHGKPTKVNNFWETSGLNILETLARLDHESVPQLIDNLLSVRTNISTIFIRTAFRQHPDKAQEVLATANEVADHADAFAELDYNIFRGLAFASGNPIYGLILNGMKGLYTRIGRHYFANPEARSLALGFYHKLSALCSEGAHDQVYETVRRYGHESGEIWHRMQKNLPGDLAIQGR” the “soluble on expression in E. coli” value was “soluble”. For “MGSDKIHHHHHHVFDKNLRNSFFAEPYSSEPLAIRIREVLNGKVGFYSVGLYPASLAYNCALQNEGFNILLAPRDGRELFGAFSDIDLSEMDNGIKNKIESMAIPNEDKSGRYNTLKDLLINCELVVLSSNSKHIITDLDLAFKLRKELNRDNVLIACLVGSFCHDHNLNESFVLCEKLNKLAFFSGFHRHGALRNPLDSFTANFCHPDSMNAILGAKLLNKISPNIQVSAGIHNVEGQYIKAAKNISSIFAGFGHTFHKNNPGLLPTLLTLLLDQCLDQAAYVSMSRTDREDLYSKQPFPITELGYSVQRIEASYVKDGDFVQVRDHTFTQLKAMVADVRGSMMLPVSGNPTRNFQAGQVLAERMIEYKRCPKGVDEFIEWCERSGLKRGALEGINSLNYWPNILRKYSIPLNNSSMINLLYMCILGPVEIKNCIYNVMSSSRELANYCQESVKSSQNKKISEALDNFHLKTSVDFVTKSLIDDDKLFFENNEIGFDNPLGAQNMPIYNKVIDYMETYLLESNL”, the “soluble on expression in E. coli” value was “not soluble”. In the case of “METPQTGYQVKTYNVPVKRYCQTLDLRDSPELIAEYRKRHSQAEVWPEILAGIREVGILEMEIYILGTRLFMIVETPVDFDWDTAMARLNTLPRQQEWEEYMSILQQAAPGMSSAEKWIPMERMFHLYNT”, the “soluble on expression in E. coli” value is reported as “not soluble”.
